In the nanobody polyreactivity screen of Harvey et al. (2022):

Assay: yeast display, Sf9 membrane polyspecificity reagent, FACS + sequencing; frameworks hold sequencing errors
Method in brief: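 Nanobodies came from a synthetic yeast display library in Saccharomyces cerevisiae BJ5465, induced with galactose for 36–48 hours and stained for 1 hour at 4 °C with 10% biotinylated, detergent-solubilized Sf9 membrane reagent. Cells were enriched on streptavidin microbeads and then FACS-sorted, with low and high (top ~1%) gates set on anti-HA fluorescence for expression and streptavidin fluorescence for reagent binding. Each polyreactivity label reflects the gate a clone came from. Genes were amplified by colony PCR, sequenced by MiSeq 2 × 250 and filtered by CDR length.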

| Sequence | polyreactivity (PSR sort gate) |
| --- | --- |
| QVQLVESGGGLVQAGGSLRLSCAASGSTFLVYAMGWYRQAPGKERELVADITSRGGSTYYADSVKGRFTISRDNAKNTVYLQMISLKPEDTAVYYCAARKRFVLFDYWGQGTQVTVSS | low polyreactivity |
| QVQLVESGGGLVQAGGSLRLSCAASGSTFLVYAMGWYRQAPGKERELVAVITYSTVRTYYADSVKGRFTISRDNAKNTVYLQMNSLKPEDTAVYYCNADKEFAVLGQGMDYWGQGTQVTVSS | low polyreactivity |
| QVQLVESGGGLVQAGGSLRLSCAASGSTFLYNAMGWYRQAPGKERELVAAITIGGGSTYYADSVKGRFTISRDNAKNTVYLQMNSLKPEDTAVYYCNKGSYYWWDPGSTYIDDYWGQGTQVTVSS | low polyreactivity |
| QVQLVESGGGLVQAGGSLRLSCAASGSTFLYNRMGWYRQAPGKERELVAAISSVGSTYYADSVKGRFTISRDNAKNTVYLQMNSLKPEDSAVYYCAASYDWRAYRRDFYYWLTGDYWGQGTQVTVSS | low polyreactivity |
| QVQLVESGGGLVQAGGSLRLSCAASGSTFLYNTMGWYRQSPGKERELVAAITWSGGNTYYADSVKGRFTISRDNAKNTVYLQMNSLKPEDTAVYYCNAVWYPPKRKGFDYWGQGTQVTVSS | low polyreactivity |
| QVQLVESGGGLVQAGGSLRLSCAASGSTFLYYAMGWYRQAPGKERELVAAIRVGGGRTYYADSVKGRFTISRDNAKNTVYLQMNSLKPEDTAVYYCAAKRRHRVPFDYWGQGTQVTVSS | high polyreactivity |
| QVQLVESGGGLVQAGGSLRLSCAASGSTFLYYAMGWYRQAPGKERELVAVISWSGVSTYYADSVKGRFTISRDNAKNTVYLQMNSLKPEDTAVYYCNTGNHYIRTYGYWGQGSQVTVSS | low polyreactivity |
| QVQLVESGGGLVQAGGSLRLSCAASGSTFLYYAMGWYRQAPGKERELVAVISWSGVSTYYADSVKGRFTISRDNAKNTVYLQMNSLTPEDTAVYYCNTGNHYIRTYGYWGQGTQVTVSS | low polyreactivity |
| QVQLVESGGGLVQAGGSLRLSCAASGSTFLYYDMGWYRQAPGKERELVADITWSGSGTYYADSVKGRFTISRDNAKNTVYLQMNSLKPEDTAVYYCAADDTWRGDQYFYSYDYWGQGTQVTVSS | low polyreactivity |
| QVQLVESGGGLVQAGGSLRLSCAASGSTFLYYGMGWYRQSPGYERELVATITWRGGRTYYADSVKGRYTISRDNAKNTVYLQMNSLKPEDTAVYYCARVRLTTYGYYSWGQGTQVTVSS | high polyreactivity |
| QVQLVESGGGLVQAGGSLRLSCAASGSTFLYYTMGWYRPAPGKERELVAAITSGGDTNYPDSVKGRFTISRDNAKNTVYLQMNSLKPEDTAVYYCNAEYTLSGTKIYTYKYDYRGQGTQVTVSS | low polyreactivity |
| QVQLVESGGGLVQAGGSLRLSCAASGSTFLYYTMGWYRQAPGKERELVAAITGSGTSTYYADSVKGRFTISRDNAKNTVYLQMNSLKPEDTAVYYCAARGHGRLYYWGQGTQVTVSS | high polyreactivity |
| QVQLVESGGGLVQAGGSLRLSCAASGSTFNAYAMGWYRQAPGKERELVAAISYTGGSTYYADSVKGRFTISRDNAKNTVYLQMNSLKPDDTAVYYCARRQARKFYYWGQGTQVTVSS | high polyreactivity |
| QVQLVESGGGLVQAGGSLRLSCAASGSTFNGNVMGWYRQAPGKERELVAGISKSGGTTYYADSVKGRFTISRDNAKNTVYLQMNSLKPEDTAVYYCAARGRVRYYPQYDYWGQGTQVTVSS | high polyreactivity |
| QVQLVESGGGLVQAGGSLRLSCAASGSTFNHYAMGWYRQAPGKERELVAAITKSGGSTYADSVKGRFTISRDNAKNTVYLQMNSLKPEDTAVYYCAAGRRKYGTKGRGDYWGQGTQVTVSS | low polyreactivity |
| QVQLVESGGGLVQAGGSLRLSCAASGSTFNIYAMGWYRQAPGKERELVATISWTGGRTFYADSVKGRFTISRDNAKNTVYLQMNSLKPEDTAVYYCNKASTGGYDYWGQGTQVTVSS | high polyreactivity |
| QVQLVESGGGLVQAGGSLRLSCAASGSTFNIYVMGWYRQAPGKERELVADITTSGRTYYADSVKGRFTISRDNAKNTVYVQMNSLKPEDTAVYYCADATGTYGRGGYYWGQGTQLTVSS | high polyreactivity |
| QVQLVESGGGLVQAGGSLRLSCAASGSTFNKYAMGWYRPAPGKERELVAVITKRGGSTYYADSVKGRFTISRDNAKNTVYLQMNSLKPEDTAVYYCAASSLYYGYDYWGQGTQVTVSS | high polyreactivity |
| QVQLVESGGGLVQAGGSLRLSCAASGSTFNLNAMGWYRQAPGKERELVAAIDSGGRTNYADSVKGRFTISRDNAKNTVYLQMNSLKPEDTAVYYCAARVLPYLTPRRQMYYWGQGTQVTVSS | low polyreactivity |
| QVQLVESGGGLVQAGGSLRLSCAASGSTFNLYAMGWYRQAPGKERELVASISRSGVSTYYADSVKGRFTISRDNAKNTVYLQMNRLKPEDTAVYYCAVDKVLYRLYPGMDYWGQGTQVTVSS | low polyreactivity |
| QVQLVESGGGLVQAGGSLRLSCAASGSTFNNNAMGWYRQAPGKERELVAAISYTGGSTYYADSVKGRFTISRDNAKNTVYLQMKSLKPEDTAVYYCDAAYPHFGGYRYDYWGQGTQVTVSS | high polyreactivity |

| Sequence | polyreactivity (PSR sort gate) |
| --- | --- |
| QVQLVESGGGLVQAGGSLRLSCAASGSTFNQYAMGWYRQAPGKEREFVATITWSGGRTYYADSVKGRFTISRDNAKNTVYLQMISLKPEDTAVYYCAAQPDYRPSYGYGYWGQGTQVTVSS | low polyreactivity |
| QVQLVESGGGLVQAGGSLRLSCAASGSTFNRYALGWYRQAPGKEREFVAAISTRGGSTHYADSVKGRFTISRDNAKNTVYLQMNSLKPEDTAVYYCNARGYYSVPSNTGIRYYRFDYWGQGTQVTVSS | low polyreactivity |
| QVQLVESGGGLVQAGGSLRLSCAASGSTFNRYAMGWYRQAHGKERELVAGISYRGGTYYSDSVKGRFTISRDNAKNTVYLQMNSLKPEDTAVYYCNVVRRGTTSYDDYEYWGQGTQVTVSS | high polyreactivity |
| QVQLVESGGGLVQAGGSLRLSCAASGSTFNRYAMGWYRQAPGKERELVAAITRSGTSTYYADSVKGRFTISRDNAKNTVYLQMNSLKPEDTAVYYCAAVRYAVHFSYDYWGQGTQVTVSS | high polyreactivity |
| QVQLVESGGGLVQAGGSLRLSCAASGSTFNRYAMGWYRQAPGKERELVAAITSTGGTNYADSVKGRFTISLDNAKNTVYLQMYSLKPEDTAVYYCAKRWLRGRSNYWGHGTQVTVSS | high polyreactivity |
| QVQLVESGGGLVQAGGSLRLSCAASGSTFNTNAMGWYRQAPGKERELVAAITSSGGGTYYADSVKGRFTISRDNAKNTVYLQMNSLKPEDTAVYYCNAVSGWYNSITYDYWGQGTQVTVSS | high polyreactivity |
| QVQLVESGGGLVQAGGSLRLSCAASGSTFNTYAMGWYRQAPGKERELVAAITWRGGRTYYADSVKGRFTISRDNAKNTVYLQMISLKPEDTAVYYCNTLRPRLDGVYGYDYWGQGSQVTVSS | high polyreactivity |
| QVQLVESGGGLVQAGGSLRLSCAASGSTFNWNAMGWYRPAPGKERELVAAISRSGGRTSYADSVKGRFTISRDNAKNTVYLQMNSLKPEDTAVYYCAAEKVGTRPSRDYDYWGQGTQVTVSS | high polyreactivity |
| QVQLVESGGGLVQAGGSLRLSCAASGSTFPAYTMGWYRQAPGKERELVAAINVSSGGSTYYADSVKGRFTISRDNAKNTVYLQRNSLKPEDTAVYYCATHGYVAHPYYYPYYYWGQGTQVTVSS | low polyreactivity |
| QVQLVESGGGLVQAGGSLRLSCAASGSTFPFNAMGWYRQAPGKEREFVAVINSGGDSTYYADSVKGRFTISRDNAKNTVYLQMNSLKPEDTAVYYCNAEDTRNDYDYWGQGTQVTVSS | low polyreactivity |
| QVQLVESGGGLVQAGGSLRLSCAASGSTFPFYAMGWYRQAPGKERELVAAIRYTGNTYYADSVKGRFTISRDNAKNTVYLQMNSLKPEDTAVYYCAADADYWAYGYWGQGTQVTVSS | low polyreactivity |
| QVQLVESGGGLVQAGGSLRLSCAASGSTFPGNAMGWYRQAPGNERELVAAIRWSGGRTYYADSVKGRFTISRDNAKNTVYLQMNSLKPEDTAVYYCAARLRKHGYGYWGQGTQVTVSS | low polyreactivity |
| QVQLVESGGGLVQAGGSLRLSCAASGSTFPHNAMGWYRPAPGKERELVAAISVGGGSTHYADSVKGRFTISRDNAKNTVYLQMNSLKPEDTAVYYCAKDYAYQYSFVTYDYWGQGTQVTVSS | low polyreactivity |
| QVQLVESGGGLVQAGGSLRLSCAASGSTFPKNAKGWYRQAPGKERELVAAINTGGSTYYADSVKGRFTISRDNAKNTVYLQINSLKPEDTAVYYCAARDNYHRDVGHPYDYWGQGTQVTVSS | low polyreactivity |
| QVQLVESGGGLVQAGGSLRLSCAASGSTFPKNAMGWTIQAPGKERELVADINTGGSTYYADSVKGRFTISRDNAKNTVYLQMNSLIPEDTAVYYCNTQSFYFVSYSSSRYLRYYWGQVTQVTVSS | low polyreactivity |
| QVQLVESGGGLVQAGGSLRLSCAASGSTFPKYAMGWYRPAPGKERELVAAITSRGSTYADSVKGRFTISRDNAKNTVYLPMNSLKPVDTAVYYCAKDSRYASRDYWGQGTQVTVSS | high polyreactivity |
| QVQLVESGGGLVQAGGSLRLSCAASGSTFPKYAMGWYRQAPGKERELVASISVTTGSTYYADSVKGRFTISRDSAKNTVYLQMNSQKPVDTAVFYCAKRTYSRKFRGAYNYWGQGTQVTVSS | high polyreactivity |
| QVQLVESGGGLVQAGGSLRLSCAASGSTFPPNAMGWYRQAPGKERELVAGINGSGGRTYYADSVKGRFTISRDNAKNTVYLQMNSMKPEDTAVYYCATRLRSEYYYNKWYYHWGQGTQVTVSS | high polyreactivity |
| QVQLVESGGGLVQAGGSLRLSCAASGSTFPPYVMGWYRQAPGKERELVAAITWSSGSTYYADSVKGRFTISRDNAKNTVYLQMNSLKPEDTAVYYCAARAYRWGQGTQVTVSS | low polyreactivity |
| QVQLVESGGGLVQAGGSLRLSCAASGSTFPQNVMGWYRQAPGKVRELVAAITRSAGSTYYADSVKGRFTISRDNPKNTVYLQMNSLKPEDTAVYNCNTGRQRGSYYYDYWGQGTQVTVSS | high polyreactivity |
